Measurements taken from patent publication US20220177587A1, “METHODS AND USES OF VARIANT CD80 FUSION PROTEINS AND RELATED CONSTRUCTS” (Alpine Immune Sciences, Inc., priority 2018, published 2022).

Key:
CD28 [1] = biological target: T1, CD28 (Homo sapiens, UniProt P10747); assay: Jurkat/IL2 + CHO/OKT3 +/- PD-L1 reporter assay: PD-L1-dependent CD28 costimulation; assay type: cell-based; parameters: host or cells: Jurkat cells expressing an IL-2-luciferase reporter; conditions: luciferase signal
Experimental: Jurkat cells were then plated at 50 μL/well for a total of 100,000 cells per well.
To each well, 25 μL of test protein was added to the Jurkat cells. […] The Jurkat cells with test or control proteins were incubated for 15 minutes at room temperature. CHO-derived artificial antigen presenting cells (aAPC) displaying transduced cell surface anti-CD3 single chain Fv (OKT3) (i.e., no PD-L1), or OKT3 and PD-L1 (i.e., +PD-L1), were brought to 0.8×10^6 cells/mL, and 25 μL of cells were added to each well, bringing the final volume of each well to 100 μL. […] Jurkat cells and CHO cells were incubated for 5 hours at 37 degrees Celsius in a humidified 5% CO2 incubation chamber. Plates were then removed from the incubator and acclimated to room temperature for 15 minutes. 100 μL of a cell lysis and luciferase substrate solution (BioGlo luciferase reagent, Promega) were added to each well and the plates were incubated on an orbital shaker for 10 minutes. Luminescence was measured with a 1 second per well integration time using a BioTek Cytation luminometer, and a relative luminescence value (RLU) was determined for each test sample.

CD28 [2] = biological target: T1, CD28; assay: CD28 costimulation via Fc receptor or PD-L1 dependent cross-linking (Jurkat/IL2 + K562/OKT3 +/- PD-L1); assay type: cell-based; parameters: host or cells: Jurkat cells expressing an IL-2-luciferase reporter; conditions: luciferase signal
Experimental: In a further experiment, CD28 costimulation was assessed for variant CD80-IgV-Fc fusion proteins, where the Fc was an IgG1 Fc (e.g. SEQ ID NO:1517) capable of mediating effector activity via binding to Fc receptors (FcR). The experiment was carried out as described in part A above, except CD32-expressing K562 cells stably transduced with OKT3 (K562/OKT3) or OKT3 and PD-L1 (K562/OKT3/PD-L1) were used instead of the CHO/OKT3 and CHO/OKT3/PD-L1 cells, and the results are depicted in Table E9.

huCTLA4 = huCTLA4 (Homo sapiens, UniProt P16410); assay: Flow binding to HEK293 cells transfected with CTLA4; parameters: Full-length mammalian surface expression constructs for each of human CTLA-4, PD-L1, and CD28; host or cells: HEK293 cells, Expi293F transient transfection system; conditions: Table E1
Experimental: Full-length mammalian surface expression constructs for each of human CTLA-4, PD-L1, and CD28, were designed in pcDNA3.1 expression vector (Life Technologies) and sourced from Genscript, USA. Binding studies were carried out on transfected HEK293 cells generated to express the full-length mammalian surface ligands using the using the Expi293F transient transfection system (Life Technologies, USA). As a control, binding to mock (non-transfected) cells also was assessed. […] For each CTLA-4, PD-L1, CD-28 or mock 30 mL transfection, 75 million Expi293F cells were incubated with 30 μg expression construct DNA and 1.5 mL diluted ExpiFectamine 293 reagent for 48 hours, at which point cells were harvested for staining.
For staining and analysis by flow cytometry, 100,000 cells of appropriate transient transfection or negative control (mock) were plated in 96-well round bottom plates. Cells were spun down and resuspended in staining buffer (PBS (phosphate buffered saline), 1% BSA (bovine serum albumin), and 0.1% sodium azide) for 20 minutes to block non-specific binding. […] Secondary antibody was washed out twice, cells were fixed in 4% formaldehyde/PBS, and samples were analyzed on Intellicyt flow cytometer (Intellicyt Corp, USA). Mean Fluorescence Intensity (MFI) was calculated for each transfectant and mock transfected HEK293 with FlowJo Version 10 software (FlowJo LLC, USA).

CD28 [3] = biological target: T1, CD28; assay: Flow binding to HEK293 cells transfected with CD28; parameters: Full-length mammalian surface expression constructs for each of human CTLA-4, PD-L1, and CD28; host or cells: HEK293 cells, Expi293F transient transfection system; conditions: Table E1
Experimental: This Example describes Fc-fusion binding studies of purified proteins from the above Examples to cell-expressed CTLA-4, PD-L1, and CD28 counter structures to assess the specificity and affinity of CD80 domain variant immunomodulatory proteins. Full-length mammalian surface expression constructs for each of human CTLA-4, PD-L1, and CD28, were designed in pcDNA3.1 expression vector (Life Technologies) and sourced from Genscript, USA. Binding studies were carried out on transfected HEK293 cells generated to express the full-length mammalian surface ligands using the using the Expi293F transient transfection system (Life Technologies, USA). As a control, binding to mock (non-transfected) cells also was assessed. […]
For staining and analysis by flow cytometry, 100,000 cells of appropriate transient transfection or negative control (mock) were plated in 96-well round bottom plates. […] As controls, the binding activities of wild-type CD80-ECD-Fc (R&D Systems), wild-type CD80-ECD-Fc (inert), wild-type IgV-Fc (inert) and/or human IgG (Sigma) were also assessed. […] Secondary antibody was washed out twice, cells were fixed in 4% formaldehyde/PBS, and samples were analyzed on Intellicyt flow cytometer (Intellicyt Corp, USA). Mean Fluorescence Intensity (MFI) was calculated for each transfectant and mock transfected HEK293 with FlowJo Version 10 software (FlowJo LLC, USA). […]

allogeneic CD4+ T cells = assay: Mixed Lymphocyte Reaction (MLR), IFN-gamma; assay type: cell-based, human; conditions: Table E32; variant ECD-Fc in MLR assay; culture supernatant
Experimental: Soluble rCD80.Fc bioactivity was tested in a human Mixed Lymphocyte Reaction (MLR). Human primary dendritic cells (DC) were generated by culturing monocytes isolated from PBMC (BenTech Bio, USA) in vitro for 7 days with 500U/ml rIL-4 (R&D Systems, USA) and 250 U/ml rGM-CSF (R&D Systems, USA) in Ex-Vivo 15 media (Lonza, Switzerland). 10,000 matured DC and 100,000 purified allogeneic CD4+ T cells (BenTech Bio, USA) were co-cultured with variant CD80 Fc fusion proteins and controls in 96 well round bottom plates in 200 μl final volume of Ex-Vivo 15 media. On day 5, IFN-gamma secretion in culture supernatants was analyzed using the Human IFN-gamma Duoset ELISA kit (R&D Systems, USA). Optical density was measured by VMax ELISA Microplate Reader (Molecular Devices, USA) and quantitated against titrated rIFN-gamma standard included in the IFN-gamma Duo-set kit (R&D Systems, USA).

human pan T cells = assay: Anti-CD3 coimmobilization assay, IFN-gamma; assay type: cell-based; conditions: Table E32; variant ECD-Fc coimmobilized with anti-CD3; culture supernatant
Experimental: Costimulatory bioactivity of CD80 fusion variants was determined in anti-CD3 coimmobilization assays. 1 nM or 4 nM mouse anti-human CD3 (OKT3, Biolegends, USA) was diluted in PBS with 1 nM to 80 nM rCD80.Fc variant proteins. This mixture was added to tissue culture treated flat bottom 96-well plates (Corning, USA) overnight to facilitate adherence of the stimulatory proteins to the wells of the plate. The next day, unbound protein was washed off the plates and 100,000 purified human pan T cells (BenTech Bio, US) or human T cell clone BC3 (Astarte Biologics, USA) were added to each well in a final volume of 200 μl of Ex-Vivo 15 media (Lonza, Switzerland). Cells were cultured 3 days before harvesting culture supernatants and measuring human IFN-gamma levels with Duoset ELISA kit (R&D Systems, USA) as described above.

huPD-L1 = huPD-L1 (Homo sapiens, UniProt Q9NZQ7); assay: Flow binding to Expi293F cells transfected with PD-L1 (ECD variants); parameters: Full-length mammalian surface expression constructs for each of human CTLA-4, PD-L1, and CD28; host or cells: HEK293 cells, Expi293F transient transfection system; conditions: Table E32; variant CD80 ECD-Fc selected against CD28
Experimental: To produce cells expressing cognate binding partners, full-length mammalian surface expression constructs for each of human CD28, CTLA-4 and PD-L1, were designed in pcDNA3.1 expression vector (Life Technologies) and sourced from Genscript, USA. Binding studies were carried out using the Expi293F transient transfection system (Life Technologies, USA). […] For each CD28, CTLA-4, PD-L1, or mock 30 ml transfection, 75 million Expi293F cells were incubated with 30 μg expression construct DNA and 1.5 ml diluted ExpiFectamine 293 reagent for 48 hours, at which point cells were harvested for staining.
For staining by flow cytometry, 200,000 cells of appropriate transient transfection or negative control were plated in 96-well round bottom plates. Cells were spun down and resuspended in staining buffer (PBS (phosphate buffered saline), 1% BSA (bovine serum albumin), and 0.1% sodium azide) for 20 minutes to block non-specific binding. […] Secondary antibody was washed out twice, cells were fixed in 4% formaldehyde/PBS, and samples were analyzed on FACScan flow cytometer (Becton Dickinson, USA).
Mean Fluorescence Intensity (MFI) was calculated for each transfectant and negative parental line with Cell Quest Pro software (Becton Dickinson, USA).

Sequence of huCTLA4 (P16410 36-223): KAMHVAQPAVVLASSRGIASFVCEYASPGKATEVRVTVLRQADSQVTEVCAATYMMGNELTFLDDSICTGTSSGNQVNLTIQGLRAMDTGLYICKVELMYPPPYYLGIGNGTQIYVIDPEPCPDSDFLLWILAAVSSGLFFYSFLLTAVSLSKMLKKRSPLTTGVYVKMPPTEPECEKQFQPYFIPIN
Sequence of huPD-L1 (Q9NZQ7 19-290): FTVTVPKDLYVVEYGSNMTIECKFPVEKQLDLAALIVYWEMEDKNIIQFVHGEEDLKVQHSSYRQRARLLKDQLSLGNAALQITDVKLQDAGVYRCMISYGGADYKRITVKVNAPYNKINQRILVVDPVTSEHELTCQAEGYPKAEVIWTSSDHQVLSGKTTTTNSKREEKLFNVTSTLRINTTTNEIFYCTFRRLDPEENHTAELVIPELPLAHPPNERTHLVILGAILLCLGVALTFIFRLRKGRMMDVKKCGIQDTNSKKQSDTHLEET

Substance | PD-L1-Dependent CD28 Costimulation, +PD-L1, 0.6 nM (CD28 [1]; CHO/OKT3/PD-L1 aAPC, 0.6 nM) | PD-L1-Dependent CD28 Costimulation, +PD-L1, 50 nM (CD28 [1]; CHO/OKT3/PD-L1 aAPC, 50 nM) | PD-L1-Dependent CD28 Costimulation, No PD-L1, 50 nM (CD28 [1]; CHO/OKT3 aAPC, no PD-L1, 50 nM) | PD-L1-Dependent CD28 Costimulation, No PD-L1, […] (CD28 [1]; CHO/OKT3 aAPC, no PD-L1, […]) | CD28 costimulation, Combination of FcR and/or PD-L1 Dependent Cross-Linking, 0.6 nM (CD28 [2]; K562/0KT3/PD-L1 aAPC, 0.6 nM) | CD28 costimulation, Combination of FcR and/or PD-L1 Dependent Cross-Linking, 50 nM (CD28 [2]; K562/0KT3/PD-L1 aAPC, 50 nM) | CD28 costimulation, FcR Dependent Cross-Linking (No PD-L1), 0.6 nM (CD28 [2]; K562/0KT3 aAPC, 0.6 nM) | CD28 costimulation, FcR Dependent Cross-Linking (No PD-L1), 50 nM (CD28 [2]; K562/0KT3 aAPC, 50 nM) | CD28 costimulation, FcR Dependent Cross-Linking (No PD-L1), […] (CD28 [2]; K562/0KT3 aAPC, […]) | CTLA4 MFI at 66.6 nM (huCTLA4) | CD28 MFI at 66.6 nM (CD28 [3]) | MLR IFN-gamma levels (allogeneic CD4+ T cells) [pg/mL] | Coimmobilization with anti CD3 IFN-gamma (human pan T cells) [pg/mL] | Binding PD-L1 MFI (huPD-L1)
Fc only: negative control Fc alone [reference compound] | 501 | 440 | 395 | 419 | 689 | 679 | 1404 | 1373 | 1390 | 5962 | 2592 | – | – | –
WT CD80 | – | – | – | – | – | – | – | – | – | – | – | 866 | 83 | 70
